This note sets out measurements from article PMC10148881, “Recognition of an Ala-rich C-degron by the E3 ligase Pirh2” (Nature Communications, 2023).

Assay [1] concerns the target T1, Ala6/C-degron peptide (sequence: …).
T1 chain: YKTSAAAAAA
Nature of the assay: ITC. Conditions: chain shown with the change.

Assay [2] has as its target Pirh2 with Ala159 substituted with aspartic acid (human) (UniProt Q96PM5). Nature of the assay: ITC; peptides (0.6–1.0 mM) titrated into the cell with 180–220 μM protein at 16 °C; 20 mM Tris-HCl pH 7.5, 150 mM NaCl, 10 μM Zn2+; one-site binding model.
Assay [3] has as its target Pirh2 with Ser155 substituted with aspartic acid (human) (UniProt Q96PM5). Described as above.
A further assay concerns the target Pirh2 R54A (human) (UniProt Q96PM5). The description is as above.
The target in a further assay is Pirh2 Q99A (human) (UniProt Q96PM5). The description is as above.
For another assay, the target named is Pirh2 D94A (human) (UniProt Q96PM5). The description is as above.

Residue numbers refer to the chain shown, from its start. Names and notes keep the numbering of the source.

B1: WT Pirh2 S155D (protein)
chain: MAATAREDGASGQERGQRGCEHYDRGCLLKAPCCDKLYTCRLCHDNNEDHQLDRFKVKEVQCINCEKIQHAQQTCEECSTLFGEYYCDICHLFDKDKKQYHCENCGICRIGPKEDFFHCLKCNLCLAMNLQGRHKCIENVSRQNCPICLEDIHTDRVVAHVLPCGHLLHRTCYEEMLKEGYRCPLCMHS
The Kd is the constant that tells how readily two partners part at equilibrium. High values mean a looser complex, low ones a tighter complex. Regarding B1, in assay [1], the Kd turned out to be 4.5 µM.

B2: WT Pirh2 D94A (protein)
chain: B1 chain with D94A, D155S
For the molecule B2, in assay [1], the Kd came out at 3 µM.

B3: WT Pirh2 Q99A (protein)
chain: B1 chain with Q99A, D155S
For B3, the Kd in assay [1] is 3.5 µM.

B4: WT Pirh2 A159D (protein)
chain: B1 chain with D155S, A159D
For B4, the Kd in assay [1] was found to be 7.1 µM.

B5: WT Pirh2 R54A (protein)
chain: B1 chain with R54A, D155S
For the molecule B5, the Kd in assay [1] was greater than 100 µM.

Turning to YKTSAAAAAA [Ala6/C-degron peptide (sequence: …)], the fold decrease in binding affinity against wild-type Pirh2 was 14 fold in assay [2]; 9 fold in assay [3]; greater than 6 fold in the assay with Pirh2 R54A (human); greater than 6 fold in the assay with Pirh2 Q99A (human); greater than 6 fold with Pirh2 D94A (human).
